Tests used:
[1] = target: ForJ (Streptomyces formicae); test: mass photometry
[2] = target: ForJ (Streptomyces formicae); test: mass photometry; remark: listed apart in the source
[3] = target: ForJ (Streptomyces formicae); test: non-reducing SDS-PAGE
[4] = target: ForJ (Streptomyces formicae); test: non-reducing SDS-PAGE; remark: listed apart in the source

stoichiometry N [1]: 2 | stoichiometry N [2]: 4 | stoichiometry N [3]: 2 | stoichiometry N [4]: 4
Substance: ForJ (natural protein)
